Laboratory results published in patent US20210196796A1 (SYNTHEKINE, published 2021).

T1: orthogonal hCD122 receptor (hoRb), hCD122 with H133D and Y134F (human, UniProt P14784 27-550)
T1 sequence: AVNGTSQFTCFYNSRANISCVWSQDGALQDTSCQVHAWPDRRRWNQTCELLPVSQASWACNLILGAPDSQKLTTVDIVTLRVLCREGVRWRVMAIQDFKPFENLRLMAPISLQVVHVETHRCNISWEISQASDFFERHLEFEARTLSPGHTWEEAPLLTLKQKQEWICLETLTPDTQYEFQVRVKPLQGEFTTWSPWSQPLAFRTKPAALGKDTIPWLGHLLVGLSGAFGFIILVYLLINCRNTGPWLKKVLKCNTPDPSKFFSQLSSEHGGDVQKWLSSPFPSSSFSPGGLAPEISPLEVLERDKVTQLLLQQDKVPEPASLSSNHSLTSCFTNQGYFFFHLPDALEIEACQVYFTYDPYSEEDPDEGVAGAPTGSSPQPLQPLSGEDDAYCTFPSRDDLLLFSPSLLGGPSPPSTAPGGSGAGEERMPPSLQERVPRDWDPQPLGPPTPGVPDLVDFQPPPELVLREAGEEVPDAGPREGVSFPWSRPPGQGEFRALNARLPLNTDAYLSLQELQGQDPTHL


Columns and labels:
[1] = target: T1, orthogonal hCD122 receptor (hoRb), …; assay: cell-based or functional assay
[2] = target: T1, orthogonal hCD122 receptor (hoRb), …; assay: cell-based or functional assay; remark: listed apart in the source
Throughout, for Relative Proliferation Fold Change 3F8 1:10: reference of the scale not given here.
Throughout, for Relative Proliferation Fold Change 3F8 1:2: reference of the scale not given here.
Throughout, for Relative Proliferation Fold Change 3F8 1:50: reference of the scale not given here.
Throughout, for Relative Proliferation Fold Change NKL 1:10: reference of the scale not given here.
Throughout, for Relative Proliferation Fold Change NKL 1:2: reference of the scale not given here.
Throughout, for Relative Proliferation Fold Change NKL 1:50: reference of the scale not given here.

Binder	NKL Ortho Proliferation Signal 1:2 [1]	NKL Ortho Proliferation Signal 1:10 [1]	NKL Ortho Proliferation Signal 1:50 [1]	Relative Proliferation Fold Change NKL 1:2 [1]	Relative Proliferation Fold Change NKL 1:10 [1]	Relative Proliferation Fold Change NKL 1:50 [1]	3F8 Ortho Proliferation Signal 1:2 [2]	3F8 Ortho Proliferation Signal 1:10 [2]	3F8 Ortho Proliferation Signal 1:50 [2]	Relative Proliferation Fold Change 3F8 1:2 [2]	Relative Proliferation Fold Change 3F8 1:10 [2]	Relative Proliferation Fold Change 3F8 1:50 [2]
I92F, SQVLKA (ligand) APTSSSTKKTQLQLSQLLVLLKAILNGINNYKNPKLTRMLTFKFYMPKKATELKHLQCLEEELKPLEEVLNLAQSKNFHLRPRDLISNINVFVLELKGSETTFMCEYADETATIVEFLNRWITFCQSIISTLT	32200	27000	12800	2.32 fold	1.84 fold	0.92 fold	29700 cts/min	36300 cts/min	20900 cts/min	80.2 fold	57.6 fold	18.4 fold
Q126H, SQVLKA (ligand) APTSSSTKKTQLQLSQLLVLLKAILNGINNYKNPKLTRMLTFKFYMPKKATELKHLQCLEEELKPLEEVLNLAQSKNFHLRPRDLISNINVIVLELKGSETTFMCEYADETATIVEFLNRWITFCHSIISTLT	43600	29000	15800	3.64 fold	1.92 fold	1.09 fold	36500 cts/min	38600 cts/min	18700 cts/min	181 fold	54.1 fold	14.5 fold
T113N, SQVLKA (ligand) APTSSSTKKTQLQLSQLLVLLKAILNGINNYKNPKLTRMLTFKFYMPKKATELKHLQCLEEELKPLEEVLNLAQSKNFHLRPRDLISNINVIVLELKGSETTFMCEYADETANIVEFLNRWITFCQSIISTLT	47400	48800	21400	3.71 fold	3.45 fold	1.63 fold	31600 cts/min	33100 cts/min	13600 cts/min	39.6 fold	38.8 fold	12.7 fold
C125A, SQVLKA (ligand) APTSSSTKKTQLQLSQLLVLLKAILNGINNYKNPKLTRMLTFKFYMPKKATELKHLQCLEEELKPLEEVLNLAQSKNFHLRPRDLISNINVIVLELKGSETTFMCEYADETATIVEFLNRWITFAQSIISTLT	42000	50400	22800	3.95 fold	3.6 fold	1.95 fold	43700 cts/min	44600 cts/min	24800 cts/min	0.72 fold	4.37 fold	5.3 fold
M104A, SQVLKA (ligand) APTSSSTKKTQLQLSQLLVLLKAILNGINNYKNPKLTRMLTFKFYMPKKATELKHLQCLEEELKPLEEVLNLAQSKNFHLRPRDLISNINVIVLELKGSETTFACEYADETATIVEFLNRWITFCQSIISTLT	47600	54800	29500	3.88 fold	3.48 fold	2.09 fold	29300 cts/min	42400 cts/min	27100 cts/min	24.4 fold	37.6 fold	39.7 fold
D109C, SQVLKA (ligand) APTSSSTKKTQLQLSQLLVLLKAILNGINNYKNPKLTRMLTFKFYMPKKATELKHLQCLEEELKPLEEVLNLAQSKNFHLRPRDLISNINVIVLELKGSETTFMCEYACETATIVEFLNRWITFCQSIISTLT	47800	44200	20400	4.2 fold	3.22 fold	1.52 fold	29100 cts/min	34000 cts/min	18600 cts/min	84 fold	51.4 fold	23.2 fold
L14M, SQVLKA (ligand) APTSSSTKKTQLQMSQLLVLLKAILNGINNYKNPKLTRMLTFKFYMPKKATELKHLQCLEEELKPLEEVLNLAQSKNFHLRPRDLISNINVIVLELKGSETTFMCEYADETATIVEFLNRWITFCQSIISTLT	57200	54500	26700	3.76 fold	3.45 fold	1.98 fold	39800 cts/min	41500 cts/min	18500 cts/min	40.9 fold	34.1 fold	12.1 fold
K97Q, SQVLKA (ligand) APTSSSTKKTQLQLSQLLVLLKAILNGINNYKNPKLTRMLTFKFYMPKKATELKHLQCLEEELKPLEEVLNLAQSKNFHLRPRDLISNINVIVLELQGSETTFMCEYADETATIVEFLNRWITFCQSIISTLT	53000	55400	25200	3.29 fold	3.64 fold	1.9 fold	35600 cts/min	40100 cts/min	19700 cts/min	91.6 fold	32.5 fold	33.1 fold
C125S, SQVLKA (ligand) APTSSSTKKTQLQLSQLLVLLKAILNGINNYKNPKLTRMLTFKFYMPKKATELKHLQCLEEELKPLEEVLNLAQSKNFHLRPRDLISNINVIVLELKGSETTFMCEYADETATIVEFLNRWITFSQSIISTLT	48200	59500	27800	4.29 fold	4.53 fold	2.26 fold	36200 cts/min	45000 cts/min	26100 cts/min	140 fold	66.6 fold	26.9 fold
